The target in this assay is T1, CIB1 (cryptochrome-interacting basic-helix-loop-helix) fused with the GAL4 DNA-binding domain (Arabidopsis) (UniProt Q8GY61).
T1 sequence: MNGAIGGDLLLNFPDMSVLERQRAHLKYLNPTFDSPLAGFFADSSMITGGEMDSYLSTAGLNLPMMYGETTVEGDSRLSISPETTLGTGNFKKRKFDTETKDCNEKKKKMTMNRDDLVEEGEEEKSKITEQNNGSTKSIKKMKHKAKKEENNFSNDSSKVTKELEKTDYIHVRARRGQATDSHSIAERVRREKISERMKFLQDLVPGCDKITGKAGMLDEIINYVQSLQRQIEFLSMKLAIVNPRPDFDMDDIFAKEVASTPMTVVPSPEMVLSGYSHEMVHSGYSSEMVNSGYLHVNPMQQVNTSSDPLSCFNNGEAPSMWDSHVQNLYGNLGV

As to “CRY2 (cryptochrome 2) fused with the VP16 transcription activation domain (from UniProt Q96524 1-612) (natural protein)”, the amiR-D1 transcript (gene downstream of the UAS) by quantitative PCR in the transgenic alga, after blue light irradiation against before (red light culture) was more than 14 fold.

These data come from paper PMC5678773.
